According to US20230037682A1 (published 2023):
Like-named read-outs stand apart in the source and are kept apart here. One block for each binder: values may come before it.

Legend:
CD3 peptide [1] = test: SPR (Biacore); 25 °C
CD3 peptide [2] = test: SPR (Biacore); 25 °C; remark: listed apart in the source

Kd (CD3 peptide [1]): 262 nM
B1: CD3_12 (NOV123) (antibody, V domains shown)
VH: QVQLVQSGAEVKKPGASVKVSCKASGYTFTSYYIYWVRQAPGQRLEWMGYIYPGHDAIYYSENFKGRVTITADTSASTAYMELSSLRSEDTAVYYCVRPNTMMAPLAYWGQGTLVTVSS
VL: DVVMTQSPLSLPVTLGQPASISCRSSQSLIYSIGNTYLHWYQQRPGQSPRLLIYRVSNRFSGVPDRFSGSGSGTDFTLKISRVEAEDVGVYYCFQSTHLPYTFGQGTKLEIKR

Kd (CD3 peptide [2]): 4.59 nM
B2: CD3_13 (NOV292) (antibody, V domains shown)
VH: QVQLVESGGGVVQPGRSLRLSCAASGFTFSKNGMHWVRQAPGKGLEWVAMIYYDSSKMYYADTVKGRFTISRDNSKNTLYLQMNSLRAEDTAVYYCASFWWDLDFDHWGQGTMVTVSS
VL: DIVMTQTPLSSPVTLGQPASISCRSSQSLVRSDGTTYFNWYQQRPGQPPRLLIYRVSNRFSGVPDRFSGSGAGTDFTLKISRVEAEDVGVYYCLQSSHFPWTFGGGTKVEIKR
